From article PMC9482650, “Quantitative fragmentomics allow affinity mapping of interactomes” (Nature Communications, 2022)

T1: NHERF3_3, Q5T2W1
T1 sequence (Q5T2W1 238-333, limits assumed, looked up): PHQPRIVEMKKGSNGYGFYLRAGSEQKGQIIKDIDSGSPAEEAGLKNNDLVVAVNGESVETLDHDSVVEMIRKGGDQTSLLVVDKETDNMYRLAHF

T2: APBA2_1, Q99767
T2 sequence (Q99767 563-664, limits assumed, looked up): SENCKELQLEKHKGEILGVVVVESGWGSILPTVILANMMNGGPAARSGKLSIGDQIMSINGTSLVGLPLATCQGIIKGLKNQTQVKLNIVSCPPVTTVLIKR

T3: DLG3_1, Q92796
T3 sequence (Q92796 125-227, limits assumed, looked up): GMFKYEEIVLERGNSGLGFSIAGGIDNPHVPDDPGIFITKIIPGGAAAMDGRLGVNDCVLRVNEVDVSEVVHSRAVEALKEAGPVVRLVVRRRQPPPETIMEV

T4: SNTA1, Q13424
T4 sequence (Q13424 82-180, limits assumed, looked up): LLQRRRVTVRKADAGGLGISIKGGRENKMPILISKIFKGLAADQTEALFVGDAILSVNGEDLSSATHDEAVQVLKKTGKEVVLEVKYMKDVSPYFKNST

T5: RAPGEF6, Q8TEU7
T5 sequence (Q8TEU7 525-625, limits assumed, looked up): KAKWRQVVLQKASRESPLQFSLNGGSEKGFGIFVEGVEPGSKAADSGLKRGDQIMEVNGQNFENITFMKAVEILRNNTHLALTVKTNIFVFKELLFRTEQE

T6: TJP3_3, O95049
T6 sequence (O95049 375-456, limits assumed, looked up): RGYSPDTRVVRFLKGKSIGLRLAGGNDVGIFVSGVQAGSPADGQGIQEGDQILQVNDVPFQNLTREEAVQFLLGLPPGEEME

T7: LNX2_2, Q8N448
T7 sequence (Q8N448 334-432, limits assumed, looked up): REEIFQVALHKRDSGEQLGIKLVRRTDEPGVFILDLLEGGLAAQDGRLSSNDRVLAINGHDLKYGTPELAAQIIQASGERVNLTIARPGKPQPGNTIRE

T8: NHERF3_1, Q5T2W1
T8 sequence (Q5T2W1 4-100, limits assumed, looked up): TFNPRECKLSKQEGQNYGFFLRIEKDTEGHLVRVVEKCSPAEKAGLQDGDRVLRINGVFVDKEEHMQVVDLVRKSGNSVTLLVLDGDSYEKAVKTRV

T9: MPP6, Q9NZW5
T9 sequence (Q9NZW5 125-219, limits assumed, looked up): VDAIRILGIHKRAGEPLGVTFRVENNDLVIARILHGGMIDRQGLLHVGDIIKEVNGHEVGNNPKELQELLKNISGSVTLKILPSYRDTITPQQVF

T10: MPDZ_10, O75970
T10 sequence (O75970 1624-1722, limits assumed, looked up): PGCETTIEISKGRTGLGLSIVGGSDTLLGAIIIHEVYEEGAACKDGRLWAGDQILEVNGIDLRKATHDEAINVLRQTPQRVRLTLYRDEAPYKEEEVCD

T11: HTRA3, P83110
T11 sequence (P83110 354-453, limits assumed, looked up): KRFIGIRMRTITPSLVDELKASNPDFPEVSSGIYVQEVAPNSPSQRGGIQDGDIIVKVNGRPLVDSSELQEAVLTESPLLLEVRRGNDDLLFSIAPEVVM

T12: DFNB31_3, Q9P202
T12 sequence (Q9P202 811-907, limits assumed, looked up): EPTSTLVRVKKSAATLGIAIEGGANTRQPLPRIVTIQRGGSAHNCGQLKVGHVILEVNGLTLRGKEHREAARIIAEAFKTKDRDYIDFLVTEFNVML


Legend:
Assay in all cases: holdup assay
Parameters in all cases: key: below the threshold = too weak to quantify, mostly under pKd 3.1 to 4
Details in all cases: plain residues with an end cap or a label only (N-terminal biotin on a linker: ado-ado)
NHERF3_3, Q5T2W1 = target: T1, NHERF3_3, Q5T2W1
APBA2_1, Q99767 = target: T2, APBA2_1, Q99767
PDLIM1, O00151 = target: PDLIM1, O00151
LNX1_2, Q8TBB1 = target: LNX1_2, Q8TBB1
DLG3_1, Q92796 = target: T3, DLG3_1, Q92796
NOS1, P29475 = target: NOS1, P29475
MAGI1_2, Q96QZ7 = target: MAGI1_2, Q96QZ7
SNTA1, Q13424 = target: T4, SNTA1, Q13424
RAPGEF6, Q8TEU7 = target: T5, RAPGEF6, Q8TEU7
DLG1_2, Q12959 = target: DLG1_2, Q12959
TJP3_3, O95049 = target: T6, TJP3_3, O95049
LNX2_2, Q8N448 = target: T7, LNX2_2, Q8N448
SCRIB_3, Q14160 = target: SCRIB_3, Q14160
PICK1, Q9NRD5 = target: PICK1, Q9NRD5
NHERF3_1, Q5T2W1 = target: T8, NHERF3_1, Q5T2W1
Inadl_2, Q8NI35 = target: Inadl_2, Q8NI35
AHNAK1, Q09666 = target: AHNAK1, Q09666
GORASP1, Q9BQQ3 = target: GORASP1, Q9BQQ3
Inadl_9, Q8NI35 = target: Inadl_9, Q8NI35
LDB3, O75112 = target: LDB3, O75112
NHERF4_1, Q86UT5-2 = target: NHERF4_1, Q86UT5-2
MPP6, Q9NZW5 = target: T9, MPP6, Q9NZW5
DLG1_3, Q12959 = target: DLG1_3, Q12959
MPDZ_10, O75970 = target: T10, MPDZ_10, O75970
HTRA3, P83110 = target: T11, HTRA3, P83110
DFNB31_3, Q9P202 = target: T12, DFNB31_3, Q9P202

Sequence of Inadl_9, Q8NI35 (Q8NI35 1530-1615): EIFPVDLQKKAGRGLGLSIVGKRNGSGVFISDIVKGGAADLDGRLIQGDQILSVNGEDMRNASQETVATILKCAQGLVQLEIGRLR
Sequence of AHNAK1, Q09666 (Q09666 4-100): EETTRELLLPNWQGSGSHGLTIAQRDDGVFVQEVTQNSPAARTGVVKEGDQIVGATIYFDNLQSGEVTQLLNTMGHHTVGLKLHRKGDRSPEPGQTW
Sequence of MAGI1_2, Q96QZ7 (Q96QZ7 456-580): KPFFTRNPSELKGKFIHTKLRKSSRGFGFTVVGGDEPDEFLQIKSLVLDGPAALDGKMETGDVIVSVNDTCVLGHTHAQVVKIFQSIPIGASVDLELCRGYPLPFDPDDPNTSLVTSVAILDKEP
Sequence of PDLIM1, O00151 (O00151 1-87): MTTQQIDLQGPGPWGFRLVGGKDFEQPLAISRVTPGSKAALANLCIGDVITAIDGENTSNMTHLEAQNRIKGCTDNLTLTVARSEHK
Sequence of LDB3, O75112 (O75112 1-94): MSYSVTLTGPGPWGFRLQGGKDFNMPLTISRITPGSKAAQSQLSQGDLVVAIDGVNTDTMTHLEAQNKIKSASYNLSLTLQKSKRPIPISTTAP
Sequence of NHERF4_1, Q86UT5-2 (Q86UT5 other isoform, or with tags, fused parts or gaps): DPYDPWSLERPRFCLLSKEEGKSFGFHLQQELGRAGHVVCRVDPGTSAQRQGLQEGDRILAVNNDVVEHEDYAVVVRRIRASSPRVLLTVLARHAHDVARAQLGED
Sequence of PICK1, Q9NRD5 (Q9NRD5 17-115): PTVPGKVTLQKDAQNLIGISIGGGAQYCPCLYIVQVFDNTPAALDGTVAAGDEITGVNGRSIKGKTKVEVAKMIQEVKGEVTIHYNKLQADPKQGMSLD
Sequence of DLG1_2, Q12959 (Q12959 314-412): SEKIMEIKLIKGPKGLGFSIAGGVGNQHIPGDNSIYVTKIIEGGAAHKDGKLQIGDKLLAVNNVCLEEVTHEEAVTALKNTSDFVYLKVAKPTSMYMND
Sequence of LNX1_2, Q8TBB1 (Q8TBB1 371-470): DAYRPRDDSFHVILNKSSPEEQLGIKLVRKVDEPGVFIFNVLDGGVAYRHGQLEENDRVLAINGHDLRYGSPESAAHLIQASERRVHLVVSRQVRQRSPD
Sequence of Inadl_2, Q8NI35 (Q8NI35 238-335): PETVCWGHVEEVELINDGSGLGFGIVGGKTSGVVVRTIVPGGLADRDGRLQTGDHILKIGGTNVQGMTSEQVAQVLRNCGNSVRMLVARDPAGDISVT
Sequence of NOS1, P29475 (P29475 9-101): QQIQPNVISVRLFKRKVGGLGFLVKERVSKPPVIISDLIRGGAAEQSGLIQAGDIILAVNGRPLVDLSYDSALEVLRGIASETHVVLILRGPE
Sequence of GORASP1, Q9BQQ3 (Q9BQQ3 1-208): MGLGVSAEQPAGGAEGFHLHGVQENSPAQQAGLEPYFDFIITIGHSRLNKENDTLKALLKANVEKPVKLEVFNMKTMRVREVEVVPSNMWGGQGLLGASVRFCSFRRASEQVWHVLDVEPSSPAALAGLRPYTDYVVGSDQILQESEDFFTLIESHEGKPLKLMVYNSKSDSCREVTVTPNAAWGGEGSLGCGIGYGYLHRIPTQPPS
Sequence of SCRIB_3, Q14160 (Q14160 999-1103): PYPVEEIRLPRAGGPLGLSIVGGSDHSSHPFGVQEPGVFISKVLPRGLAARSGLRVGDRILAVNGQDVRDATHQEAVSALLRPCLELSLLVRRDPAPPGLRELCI
Sequence of DLG1_3, Q12959 (Q12959 457-571): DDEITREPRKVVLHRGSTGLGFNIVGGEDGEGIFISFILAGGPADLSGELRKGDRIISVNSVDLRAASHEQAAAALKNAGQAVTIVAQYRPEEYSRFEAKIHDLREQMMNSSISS

| pKd (NHERF3_3, Q5T2W1) | pKd (APBA2_1, Q99767) | pKd (PDLIM1, O00151) | pKd (LNX1_2, Q8TBB1) | pKd (DLG3_1, Q92796) | pKd (NOS1, P29475) | pKd (MAGI1_2, Q96QZ7) | pKd (SNTA1, Q13424) | pKd (RAPGEF6, Q8TEU7) | pKd (DLG1_2, Q12959) | pKd (TJP3_3, O95049) | pKd (LNX2_2, Q8N448) | pKd (SCRIB_3, Q14160) | pKd (PICK1, Q9NRD5) | pKd (NHERF3_1, Q5T2W1) | pKd (Inadl_2, Q8NI35) | pKd (AHNAK1, Q09666) | pKd (GORASP1, Q9BQQ3) | pKd (Inadl_9, Q8NI35) | pKd (LDB3, O75112) | Binder | other results |
| --- | --- | --- | --- | --- | --- | --- | --- | --- | --- | --- | --- | --- | --- | --- | --- | --- | --- | --- | --- | --- | --- |
| below the threshold | below the threshold | below the threshold | below the threshold | below the threshold | 3.53 | below the threshold | below the threshold | below the threshold | 3.83 | below the threshold | below the threshold | 3.72 | below the threshold | 4.73 | below the threshold | below the threshold | below the threshold | below the threshold | 3.58 | TISFTQTSQF [SLC1A1, P43005] | pKd (NHERF4_1, Q86UT5-2): 3.99; pKd (MPP6, Q9NZW5): below the threshold; pKd (DLG1_3, Q12959): below the threshold; pKd (MPDZ_10, O75970): below the threshold; pKd (HTRA3, P83110): below the threshold; pKd (DFNB31_3, Q9P202): 3.99 |
| 3.57 | below the threshold | 3.68 | 4.13 | 3.72 | 4.17 | 3.88 | 3.83 | below the threshold | 3.86 | 3.78 | 5.04 | 3.99 | 3.51 | below the threshold | 3.58 | 3.57 | 3.85 | 4.6 | below the threshold | EIPAQSPTCV [FZD10, Q9ULW2] | pKd (NHERF4_1, Q86UT5-2): 3.91; pKd (MPP6, Q9NZW5): below the threshold; pKd (DLG1_3, Q12959): 4; pKd (MPDZ_10, O75970): 3.89; pKd (HTRA3, P83110): 3.95; pKd (DFNB31_3, Q9P202): below the threshold |
| below the threshold | below the threshold | below the threshold | below the threshold | below the threshold | below the threshold | below the threshold | below the threshold | below the threshold | below the threshold | below the threshold | 3.74 | 3.56 | below the threshold | below the threshold | below the threshold | below the threshold | 4.59 | 3.66 | below the threshold | DFLSTFHIRI [CIB2, O75838] | pKd (NHERF4_1, Q86UT5-2): below the threshold; pKd (MPP6, Q9NZW5): below the threshold; pKd (DLG1_3, Q12959): below the threshold; pKd (MPDZ_10, O75970): below the threshold; pKd (HTRA3, P83110): below the threshold; pKd (DFNB31_3, Q9P202): 3.5 |
